Experimental data from paper doi:10.1101/2023.01.07.523125.

Target: human Slack channel (Slo2.2, KCNT1) (human) (UniProt Q5JUK3)
Assay: cryo-EM structure

stoichiometry N: 4
Substance: human Slack channel (Slo2.2, KCNT1) (from UniProt Q5JUK3 1-1230) (natural protein)
